# Measurements reported in the RNAGym collection of RNA variant scans (doi:10.1073/pnas.2313332121).
# Variants at the floor of the assay were thinned out.
# B1: TPR 5TU (parent)
# chain: GGAUCUUCUCGAUCUAACAAAAAAGACAAAUCUGCCACAAAGCUUGAGAGCAUCUUCGGAUGCAGAGGCGGCAGCCUUCGGUGGCGCGAUAGCGCCAACGUUCUCAACUAUGACACGCAAAACGCGUGCUCCGUUGAAUGGAGUUUAUCAUG
# Variants of: B1
# Test: polymerase ribozyme fitness, log enrichment relative to wild type (log ratio); higher = more active; in vitro selection for triplet polymerase activity
# Outline: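 Only genotypes with ≥10 input reads and ≥1 read per output were kept after Illumina sequencing of input and output libraries. These libraries were PCR-built, transcribed mutants of each subunit of a heterodimeric triplet polymerase ribozyme, each put through one triplicate in vitro selection round with frozen incubation at −7 °C, gel excision of extended constructs, streptavidin-bead capture and RT-PCR. Fitness is a logarithmic ratio of genotype enrichment to wild-type enrichment, from inverse-variance-weighted replicate averages, with the logarithm in base 2.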
row,Variant,polymerase ribozyme fitness (log ratio)
1,GGAUCUUCUCGAUUUAACAAAAAAGACAAAUCUGCCACAAAGCUUGAGAGCAUCUACGGAUGCAGAGGCGGCAGCCUUCGGUGGCGCGAUAGCGCCAACGUUCUCAACUAUGACACGCAAAACGCGUGCUCCGUUGAAUGGAGUUUAUCAUG [C14U U56A],-1.8
2,GGAUCUUCUCGAUUUAACAAAAAAGACAAAUCUGCCACAAAGCUUGAGACCAUCUGCGGAUGCAGAGGUGGCAGCCUUCGGUGGCGCGAUAGCGCCAACGUUCUCAACUAUGACACGUAAAACGCGUGCUCCGUUGAAUGGAGUUUAUCAUG [C14U G50C U56G C69U C118U],≤ -4.2
3,GGAUCUUCUCGAUUUAACAAAAAAGACAAAUCUGCCACAAAGCUUGAGAGCAUCUUCGGAUGCAGAGGCGGCAGCCUUCGGUGGCGCGAUAGCCCCAACGUUCUCAACUAUGACACGCAAAACGCGUGCUCCGUUGAAUGGAGUUUAUCAUG [C14U G94C],-2.9
4,GGAUCUUCUCGAUUUAACAAAAAAGACAAAUCUGCCACAAAGCUUGAGAGCAUCUUCGGAUGCAGAGGCGGCAGCCUUCGGUGGCGCGAUAGCACCAACGUUCUCAACUAUGACACGCAAAACGCGUGCUCCGUUGAAUGGAGUUUAUCAUG [C14U G94A],-1.85
5,GGAUCUUCUCGAUUUAACAAAAAAGACAAAUCUGCCACAAAGCUUGAGAGCAUCUUCGGAUGCAGAGGCGGCAGCCUUCGGUGGCGCGAUAGCGCAAACGUUCUCAACUAUGACACGCAAAACGCGUGCUCCGUUGAAUGGAGUUUAUCAUG [C14U C96A],-1.59
6,GGAUCUUCUCGAUUUAACAAAAAAGACAAAUCUGCCACAAAGCUUGAGAGCAUCUUCGGAUGCAGAGGCGGCAGCCUUCGGUGGCGCGAUACCGCCAACGUUCUCAACUAUGACACGCAAAACGCGUGCUCCGUUGAAUGGAGUUUAUCUUG [C14U G92C A150U],-4.2
7,GGAUCUUCUCGAUUUAACAAAAAAGACAAAUCUGCCACAAAGCUUGAGAGCAUCUUCGGAUGCAGAGGCGGCAGCCUUCGGUGGCGCGAUAGCGCCAACGUUCUGAACUAUGACACGCAAAACGCGUGCUCCGUUGAAUGGAGUUUAUCAUG [C14U C105G],-3.25
8,GGAUCUUCUCGAUUUAACAAAAAAGACAAAUCUGCCACAAAGCUAGAGAGCAUCUUCGGAUGCAGAGGCGGCAGCCUUCGGUGGCGCGAUUGCGCCAACGUUCUCAACUAUGACACGCAAAACGCGGGCUCCGUUGAAUGGAGUUUAUCAUG [C14U U45A A91U U127G],≤ -4.2
9,GGAUCUUCUCGAUUUAACAAAAAAGACAAAUCUGCCACAAAGCUUGAGAGCAUCUUCGGAUGCAGAGGCGGCAGCCUUCGGUUGCGCCAUAGCGCCAACGUUCUCAACUAUGACACGCAAAACGCGUGCUCCGUUGAAUGGAGUUUGUCAUG [C14U G83U G88C A147G],≤ -4.2
10,GGAUCUUCUCGAUCAGACAAAAAAGACAAAUCUGCCACAAAGCUUGAGAGCAUCUUCUGAUGCAGAGGGGGCAGCCUUCGGUGGUGCGUUAGCGCUAACGUUCUCAAUUAUGACACGCAAAACGCGUGCUCCGUUGAAUGGAGUUUAUCAUG [U15A A16G G58U C69G C85U A89U C96U C108U],≤ -4.2
11,GGAUCUUCUCGAUUUAACAAAAAAGACAAAUCUGCCACAAAGCUUGAGAGCAUCUUCGGAUGCAGAGGCGGCAGCCUUCGAUGGCGCGAUAGCGCCAACGUUCUCAACUAUGACACGCAAAACGCGUGCUCCGUUGAAUGGAGUUUAUCAUG [C14U G81A],-1.14
12,GGAUCUUCUCGAUUUAACAAAAAAGACAAAUCUGCCACAAAGCUUGAGAGCAUCUUCGGAUGCAGAGGCGGCAGCCUUCGGUGUCGCGAUAGCGCCAACGUUCUCAUCUAUGACACGCAAAACGCGUGCUCCGUUGAAUGGAGUUUUUCAUG [C14U G84U A107U A147U],≤ -4.2
13,GGAUCUUCUCGAUUUAACAAAAAAGACAAAUCUGCCACAAAGCUUGAGAGCAUCUUCGGAUGCAGAGGCGGCAGCCUUCGGUGGCGCGAUAGCGCCAACGUUCUCAACUAUGACACGUAAAACGCGUGCUCCGUUGAAUGGAGUUUAUCAUG [C14U C118U],-1.65
14,GGAUCUUCUCGAUUUAACAAAAAAGACAAAUCUUCCACAAAGCUUGAGAGCAUCUUCGGAUGCAGAGACGGCAGCCUUCGGUGGUGCGAUAGCGCCAACGUUCUCAACUAUGACACGCAAAACGCGUGCUCCGUUGAAUGGAGAUUAUAAUG [C14U G34U G68A C85U U144A C149A],≤ -4.2
15,GGAUCUUCUCGAUUUAACAAAAAAGACAAAUCUGCCACAAAGCUUGAGAGCAUCUUCGGAUGCAGAGGCGGCAGCCUUCGGUGGCGCGAUAACGCCAACGUUGUCAACUAUGACACGCAAAACGCGUGCUCCGUUGAAUGGAGUUUAUCAUG [C14U G92A C103G],≤ -4.2
16,GGAUCUUCUCGAUUUAACAAAAAAGACAAAUCUGCCACAAAGCUUGAGACCAUCUUCGGAUGCAGAGGCGGCAGCCUUCGGUGGCGCGAUAGCGCCAACGUUCUCAACUAUGACACGCAAAACGCGUGCUCCGUUGAAUGGAGUUUAUCAUG [C14U G50C],-3.52
17,GGAUCUUCUCGAUUUAACAAAAAAGACAAAUCUGCCACAAAGCUUGAGAUCAUCUUCGGAUGCAGAGGCGGCAGCCUUCGGUGGCGCGAUAGCGCCAACGUUCUCAACUAUGACACGCAAAACGCGUGCUCCGUUGAAUGGAGUUUAUCAUG [C14U G50U],-1.15
18,GGAUCUUCUCGAUUUAACAAAAAAGACAAAUCUGCCACAAAGCUUGAGAGCAUCUUCGGAUGCAGAGGCGGCAGCCUUCGGUGGCGCGAUAGCCCCAACGUUCUCAGCUAUGACACACAAAACGCGUGCUCCGUUGAAUGGUGUUUAUCAUG [C14U G94C A107G G117A A142U],≤ -4.2
19,GGAUCUUCUCGAUCAAACAAAAAAGACAAAUCUGCCACAAAGCUUGAGAGCAUCUUCGGAUGCAGAGGCGGCAGCCUUCGGUGGCGCGAUAGCGCCAACGUUCUCAACUAUGACACGCAAAACGCGUGCUCCGUUGAAUGGAGUUUAUCAUG [U15A],-0.182

row,Variant,polymerase ribozyme fitness (log ratio)
1,GGAUCUUCUCGAUCAAACCAAAAAGACAUAUCUGCCACAAAGCUUGAGAACAUCUUCGGAUGCAGAGGCGGCAGCCUUCGGUGGCGCGAUAGCGUCAACGUUCUCAACUAUGACACGCAAAACGCGUGCUCCGUUGAAUGGUGUUUAUCAUG [U15A A19C A29U G50A C95U A142U],≤ -4.2
2,GGAUCUUCUCGAUUUAACAAAAAAGACAAAUCUGCCACAAAGCUUGAGAGCAUCUUCGGAUCCAGAGGCGGCAGACUUCGGUGGCGCGAUAGGGCCAACGUUCUCAACUAUGACACGCAAAACGCGUGCUCCGUUGAAUGGAGUUUAUCAUG [C14U G62C C75A C93G],≤ -4.2
3,GGAUCUUCUCGAUUUAACAAAAAAGACAAAUCUGCCACAAAGCUUGAGAGCAUCUUCGGAUGCAGAGGCGGCAACCUUCGGUGGCGCGAUAGCACCAACGUUCUCAACUAUGACACGCAAAGCGCGUGCUCCGUUGAAUGGAGUUUAUCAUG [C14U G74A G94A A122G],≤ -4.2
4,GGAUCUUCUCGAUUCAACAAAAUAGACAAAUCUGCCACAAUGCUUGAGAGCAUCUUCGGAUGCAGAGGCGGCAGCCUUCGGUGGAGCGAUAGCGCCAACGUUCUCAACUAUGACACGCAAAACGCGUGCUCCGUUGAAUGGAGUUUAUCAUG [C14U U15C A23U A41U C85A],≤ -4.2
5,GGAUCUUCUCGAUCAACCAAAAAAGACAAAUGUGCCACAAAGCUUGAGAGCAUCUUCGGGUGCAGAGGCGGCAGCCUUCGGUGGCGCGAUAGCGCCAAUGUUCUCAACUAUGACAUGCAAAACGCGUGCUCCGUUGAAUGGAGUUUAUCAUG [U15A A17C C32G A60G C99U C116U],≤ -4.2
6,GGAUCUUCUCGAUUUAACAAAAAAGACAAAUCUGCCACAAAGCUUGAGAGCAUCUUCGAAUGCAGAGGCGGCAGCCUUCGGUGGUGCGAUAGCGCCAACGUUCUCAACUAUGACACGCAAAACGCGUGCUCCGAUGAAUGGAGUUUAUCAUG [C14U G59A C85U U134A],-4.12
7,GGAUCUUCUCGAUUUAACAAAAAAGACAAAUCUGCCACAAAGCUUGAGAGCAUCUUCGGAUGCAGAAGCGGCAGCCUUCGGUGGCGCAAUAGCGCCAACGUUCUCAACUAUGACACGCAAAACGCGUGCUCCGUUUAAUGGAGUUUAUCAUG [C14U G67A G88A G136U],≤ -4.2
8,GGAUCUUCUCGAUUUAACAAAAAAGACAAAUCUGCCACAAAGCUUGAGAGCAUCAACGGAUGCAGAGGCGGCAGCAUUCGGUGGCGCGAUAGCGCCAACGUUCUCAACUAUGACACGCAAAACGCGUGCUCCGUUGAAUGGAGUUUAUCAUG [C14U U55A U56A C76A],-2.4
9,GGAUCUUCUCGAUUUAACAAAAAAGACAAAUCUGCCACAAAGCUUGAAAGCAUCUUCGGAUGCCGAGGCGGCAGCCUUCGGUGGCGCGACAGCGCCAACGUGGUCAACUAUGACGCGCAAAGCGCGAGCUCCGUUGAAUGGAGUUUAUCCUG [C14U G48A A64C U90C U102G C103G A115G A122G U127A A150C],≤ -4.2
10,GGAUCUUCUCGAUUUAACAAAAAAGACAAAUCUGCCACAAAGCUUGAGAGCAUCUUCCGAUGCAGAGGCGGCAGCCUUCGGUGGUGCGGUAGCGCCAACGUUCUCAACUAUGACACGCAAAACGCGUGCUCCGUUAAAUGGAGUUUAUCAUG [C14U G58C C85U A89G G136A],-3.44
11,GGAUCUUCUCGAUUUAACAAAAAAGACAAAUCUGCCACAAAGCUUGAGAGCAUCUUCGGAUGCAGAAGCGGCAGCCUUCGGUGGCGCGAUAGCGCCAACGUUCUCAACUAUGACACGCAAAACGCGUGCUCCGUUGAAUGGAGUUUAUCACG [C14U G67A U151C],≤ -4.2
12,GGAUCUUCUCGAUCAACCAAAAUAGACAAAUCUGCCACAAAGCUUGAGAGCAUCAUCGGAUGCAGAGGCGGCAGCCUUCGGUGACGCGAUAACACCAACGUGCUCAACUAUGACAGGCAAAACGCGUGCUCCGUUGAAUGGAGUUUAUCAUG [U15A A17C A23U U55A G84A G92A G94A U102G C116G],≤ -4.2
13,GGAUCUUCUCGAUUUAACAAAAAAGACAAAUCUGCCACAAAGCUUGAGAGCAUCUUCGGAUGCAGAGGCGGCAGCCUUCGGUGGCGCGAUAGCGCCAACGUUCUCAACUAUGACACGCAAAACGCGUGCUCCGUCGAAUGGAGUUUAUCAUG [C14U U135C],-3.88
14,GGAUCUUCUCGAUUUAACAAAAAAGACAAAUCUGCCACAAAGCUUAAGAGCAUAUUCGGAUGCAGAGGCGGCAGCCUUCGGUGGCGCGAUAGCGCCAACGUUCUCAACUAUGACACGCAAAACGCGUGCUCAGUUGAAUGGAGUUUAUCAUG [C14U G46A C54A C132A],≤ -4.2
15,GGAUCUUCUCGAUUUAACAAAAAAGACAAAACUGCCACAAAGCUUGAGAGCAUCUUCGGAUGCCGAGGCGGCAGACUUCGGUGGCGCGAUAGGGCCAACGUUUUCAACUAUGACACGCAAAACGCGUGCUCCGUUGAAUGGAGUUUAUCAUG [C14U U31A A64C C75A C93G C103U],≤ -4.2
16,GGAUCUUCUCGAUUUAACAAAAAAGACAAAUCUGCCACAAAGCUUGAGAGCAUCUUCGGAUGCAGAGGCGGCAGCCUUCGGUGGCGCGAUAGCGCCAACGUUCUCAACUAUGACACGCAAAACGCGUGCUCCGUUGAAUGGAGGUUAUCAUG [C14U U144G],-0.898
17,GGAUCUUCUCGAUUUAACAAAAAAGACAAAUCUGCCACAAAGCUUGAGAGCAUCUUCGGAUGCAGAGGCGGCAGCCUUCGGUGGCGCGAUAGCGCCAACGUUCUCAACUAUGACACGCAAAACGCGUGCUCCGUUGAAUGGAGUAUAUCAUG [C14U U145A],-1.55
18,GGAUCUUCUCGAUUGAACAAAAAAGACAAAUCUGCCACAAAGCUAGAGAGCAUCUUCUGAUGCAGAGGCGGCAGGCUUCGGUGGCGCGAUAGCGCCAACGUUCUCAACUAUGACACGCAAAACGCGUGCUCCGUCGAAUGGAGUUUAUCAUG [C14U U15G U45A G58U C75G U135C],≤ -4.2
19,GGAUCUUCUCGAUUUAACAAAAAAGACAAAUCUGCCACAAAGCUUGAGAGCAUCUGCGGAUGCAGAGGCGGCAGCCUUCGGUUGCGCGAUAGCGUCAACGUUCUCAACUAUGACAUGCAAAACGCGUGCUCCGUUGAAUGGAGUUUAUCAUG [C14U U56G G83U C95U C116U],-3.87
